The values that follow come from patent US12495796B2, “Compositions, methods, and applications of a synthetic surfactant” (1283581 B.C. LTD, priority 2019, dated 2025).

The nature of data set [1]: Retention of pesticide (Bifenazate) in leaves with RSN 1-6 mixture as adjuvant, GC/MS quantification. As to conditions: Floramite + RSN 1-6 mixture vs pesticide alone. It counts as in vivo, Arabidopsis thaliana (columbia ecotype). The protocol: 12 four-week-old Arabidopsis thaliana (columbia ecotype) plants were used for the experiment. (6 control, 6 experimental) (FIG. 13).
Growth condition: plants were grown in soil at in 16-hour days/8-hour nights light cycle with temperatures of 22° C. Lighting was provided with fluorescent bulbs giving an average light intensity of 175 micromoles/meter^2 second. Seeds were cold treated (stratification) for 3 days at 4° C. after imbibition to synchronize germination
The experimental plants were applied with a mixture of Floramite® and RSN 1-6 mixture (50 μL of 10 mg/mL) directly to the leaves using a pipette. The control plants were applied with just the pesticide. Samples were collected at the end of 5 days and 10 days.
4 control leaves and 4 experimental leaves were collected at the end of 5 days and 10 days of application. The leaves were homogenized using liquid nitrogen and extracted using Methanol:Chloroform mix (2:1) (FIG. 14). […]
A GC/MS instrument (Thermo Focus GC, Polaris ion trap MS) with a DB-5 column was used for quantification of the pesticide. […]
Concentration of Bifenazate in control leaf sample −0.018 μg/μL (FIG. 15). […] Concentrations were calculated using the peak area of the internal standard compared to the peak area of the pesticide. The experimental leaf was calculated to have a 3.6 times the amount of Bifenazate when compared to the control leaf.

The test system of another data set is E. coli. The data set can be described thus: Kirby Bauer antimicrobial assay (disk-diffusion) on E. coli culture plates. It counts as cell-based, Escherichia coli. The settings on record: 24 hours; for antimicrobial properties / radius of resistance to the E. coli colonies: 20 μL of 10 mg/mL on filter paper disc, 37° C.; for effect on E. coli colonies (kills or slows growth): conclusion from disk-diffusion; for resistance to E. coli (in words): growth of colonies near the filter paper disc. As for the experimental part:
Antimicrobial agents stop the growth or kill microorganisms such as Escherichia coli (E. coli). The Kirby Bauer antimicrobial assay or disk-diffusion method is used to test what antibiotic will fight against which bacteria strain.^17 The Kirby Bauer antimicrobial assay, is most commonly used to monitor the growth of bacteria growth around a disk, measuring the radius/diameter of the growth from the disk if a gap is present; this can be done in a time period as short as 24 hours or as long as 5 days.^18
RSN mixture was prepared using equal parts of each protein (RSN 1-6) in a concentration of 10 mg/mL and vortexed until combined.^22 E. coli culture plates were prepared and allowed to dry, small filter paper circles were placed on the plate, with a 20 μL of the RSN sample labeled RSN 1-6.
Once the protein was placed on the E. coli culture plates, the plates were placed into a new Brunswick Scientific Excella E24 Incubator Shaker set at 37° C., for 24 hours. After 24 hours the plates were taken out of the incubator shaker and observed.
On the technique in general: In agar diffusion tests the substance spreads into inoculated agar from a disc or well.

The nature of data set [2]: Denaturing of ranaspumin proteins with increasing temperature, monitored by circular dichromium (CD). It counts as physicochemical. As to conditions: CD 200-300 nm, 0.25 mg/mL, 20-90° C. in 5° C. steps. As for the experimental part: The secondary structure of ranaspumin proteins can be confirmed with CD to identify if there is a presence of an α-helix, β-sheets or random coils. The CD can also be used to monitor the denaturing of a protein structure by observing the intensity of the bands on the spectra. This experiment uses increasing temperature to determine when ranaspumin proteins start to denature in the secondary structure with the use of a CD spectrum. A 3 mL solution with a concentration of 0.25 mg/mL of RSN 1-6 was diluted from a range of 2.69 mg/mL-0.50 mg/mL stock solution. The Jasco 815 […], with Jasco temperature controller and a water bath attachment was used to analyze the RSN 2 protein structure. The initial temperature was set to 20° C., the wavelength was set to 200-300 nm and the temperature was increased by 5° C. after each measurement and allowing for 60 seconds of stability before recording the next measurement, in a temperature range of 20-90° C. A bank was run for a baseline before a 1.5 mL solution was run through the CD and the spectra were monitored for a change in intensity in the bands.

For the molecule `COc1ccc(-c2ccccc2)cc1NNC(=O)OC(C)C` [Bifenazate], the “amount of Bifenazate in experimental leaf compared to control leaf” value is 3.6 times in data set [1] (after 5 days) and 1.2 times in data set [1] (after 10 days).

B1: RSN 5: recombinant mature ranaspumin protein without signal peptide, Synthetic Amino Acid Sequence No. 5 (protein, listed as Engystomops pustulosus)
chain: GAPGGAAGPLLVLNILGSVVHETKPPEGVNLALKGIASSDSIASNGSVTGLAAKAIDGIRVSDFFKGHCSLTNGLNNPTWWKVDLKKSYKISSVFVTNRDDCCTERLLHAEIRIGSNPDHNHNPICAEVKTVASSNIGFCCGGMEGRYVSVSVPRKEQLSLCEVEVYGDLKKVLHCA
With B1, in the data set with E. coli, the antimicrobial properties result is reported as “presented antimicrobial properties”, the “radius of resistance to the E. coli colonies” value is 0.7 cm, the “effect on E. coli colonies (kills or slows growth)” value was “slows the rate of the growth of the E. coli colonies” and the “resistance to E. coli (in words)” value was “moderate resistance”. In data set [2], the “temperature at which the protein fully denatures” value is 70 °C.

B2: RSN 3: recombinant mature ranaspumin protein without signal peptide, Synthetic Amino Acid Sequence No. 3 (protein, listed as Engystomops pustulosus)
chain: IDPTGLVQILLLEQVVHKIPPGNINLARTGIATQDSDYTASAVPSEARLAIDGNRNSDFNQKSCSHTGGNEPAWWRLELKKKSKISVVVIAIRSDCCMDRFKGAELRIGNSQDATVNPICGKVSAVKGSNYLFCCDGMEGKYISVVIPDRHEFLSLCEVEVYGAKPIEGTHCK
Take B2: the antimicrobial properties result in the data set with E. coli was “did not show any antimicrobial properties”. Also, in data set [2], the “temperature at which the protein fully denatures” value was 70 °C and the “temperature at which the protein starts to denature” value (from here on “temperature … to denature”) was 70 °C.

B3: RSN 1: recombinant mature ranaspumin protein without signal peptide, Synthetic Amino Acid Sequence No. 1 (protein, listed as Engystomops pustulosus)
chain: GGGNIGGGAKLGPEKPATPGIQDLLKSLLSVLNLSPPAIPEDAEAVSYRDAKNGKFRLIKIHLGGELYCHVKQIAGPILALPIVSDVVEVTGKECGKTEDDPLEDFPIP
Consider B3, for which the antimicrobial properties result with E. coli is recorded as “did not show any antimicrobial properties”. Also, in data set [2], the “temperature at which the protein denatures further” value is 70 °C and the “temperature … to denature” value was determined as 50 °C.

B4: RSN 2: recombinant mature ranaspumin protein without signal peptide, Synthetic Amino Acid Sequence No. 2; main surfactant (protein, listed as Engystomops pustulosus)
chain: LILDGDLLKDKLKLPVIDNLFGKELLDKFQDDVKDKYGVDTKDLKILKTSEDKRFYYVSVDAGDGEKCKFKIRKDVDVPKMVGRKCRKDDDDDDGY
For B4, in the data set on E. coli, the antimicrobial properties result is given as “presented antimicrobial properties”, the “radius of resistance to the E. coli colonies” value stood at 1.1 cm, the “effect on E. coli colonies (kills or slows growth)” value is given as “kills the E. coli colonies” and the “resistance to E. coli (in words)” value is listed as “high resistance”. Further, in data set [2], the “temperature … to denature” value turned out to be 70 °C.

B5: RSN 6: recombinant mature ranaspumin protein without signal peptide, Synthetic Amino Acid Sequence No. 6 (protein, listed as Engystomops pustulosus)
chain: ETLCIPGRMKQLDAGAGRVVAVKSNGDVYQLLENNWVQIPGKLIHVTVGPAGLWGVNKDKNIYKYVDNDWLQVDGLLNQIDAGGNRFVVGVNDNEDIFCLNQDQTTSNAVKLDYKGVDGKLKYYSSGGYGSWGVNAAYDIFYRRNVHPMSCQGTNWENVEGKLVMLEVAEDGSVYGVNYNGHVYKREGITAGNPMGTSWTYLKVDEKVRHVSYDRGVLYVVTIDDRIFRC
In the case of B5, the antimicrobial properties result with E. coli is “did not show any antimicrobial properties”. Moreover, in data set [2], the “secondary structure staying intact up to” value was 30-39 °C, the slowly denatures until was determined as 90 °C and the “temperature … to denature” value was determined as 40 °C.

B6: RSN 4: recombinant mature ranaspumin protein without signal peptide, Synthetic Amino Acid Sequence No. 4 (protein, listed as Engystomops pustulosus)
chain: DRNLALDGRATMSSIWMDPDIRQSFLGVAMNGIDGNTDSVYFHGSCFHTGLDSPAWYRVDLLRTSKISSITITNRGDFGSRTNGAEIRIGDSLANNGNNNPRCALVTSIADGETRTFQCNNMVGRYVNIVLTGKTEFLHLCEVQIFGENLPRSFSCQYSNDGMITLLVSTRFMK
B6: the antimicrobial properties entry in the data set with E. coli was “did not show any antimicrobial properties”. In data set [2], the “temperature at which the protein denatures further” value was determined as 90 °C and the “temperature … to denature” value was 50 °C.
